Test results published in patent publication US6339070B1, “Gene construct encoding a heterologous prodrug-activating enzyme and a cell targeting moiety” (Zeneca Limited, priority 1997, dated 2002).
Entries after “also recorded” stand apart in the source; their conditions may differ.

Columns and labels:
[1] = tested on: recombinant LoVo tumour cells; assay: Retention of secreted fusion protein on recombinant LoVo cells (cell based ELISA); details: CEA positive, without added anti-CEA antibody, listed as (A5B7-CPG2)2 fusion protein
Experimental: (§1) The vertical axis represents optical density readings measured at 490 nm and the horizontal axis the amount of added anti-CEA antibody (IIE6) measured in ng/ml of protein. […] Firstly, the cell lines were fixed and washed to remove the existing supernatant and any unbound material after which increasing concentrations of the anti-CEA antibody (IIE6) were added to the fixed cells. The assay was developed as described in the text to determine the level of retention of any secreted material and whether further added antibody would increase the signal. […] Since the recombinant Colo320DM are CEA negative no increase in signal due to anti-CEA antibody the results for these cells would be expected. In the case of the recombinant LoVo cells the addition signal due the amounts of antibody added in this assay may be swamped except at the highest dose due to the relative strength of the original signal.
(§2) LoVo colorectal tumour cells transfected with the (A5B7-CPG2)2 fusion protein gene have been shown both to secrete and to retain the fusion protein on their cell surface. […] The recombinant LoVo cells still gave such a strong initial signal that the added antibody made little difference to the overall signal obtained, which was considerably higher than any of the control experiments.

[2] = molecular target: T1, human carcinoembryonic antigen (CEA) (Homo sapiens, UniProt P06731); assay: CEA-binding ELISA, anti-CPG2 reporter antibody; details: COS-7 transient expression supernatant
T1 sequence (P06731 35-676): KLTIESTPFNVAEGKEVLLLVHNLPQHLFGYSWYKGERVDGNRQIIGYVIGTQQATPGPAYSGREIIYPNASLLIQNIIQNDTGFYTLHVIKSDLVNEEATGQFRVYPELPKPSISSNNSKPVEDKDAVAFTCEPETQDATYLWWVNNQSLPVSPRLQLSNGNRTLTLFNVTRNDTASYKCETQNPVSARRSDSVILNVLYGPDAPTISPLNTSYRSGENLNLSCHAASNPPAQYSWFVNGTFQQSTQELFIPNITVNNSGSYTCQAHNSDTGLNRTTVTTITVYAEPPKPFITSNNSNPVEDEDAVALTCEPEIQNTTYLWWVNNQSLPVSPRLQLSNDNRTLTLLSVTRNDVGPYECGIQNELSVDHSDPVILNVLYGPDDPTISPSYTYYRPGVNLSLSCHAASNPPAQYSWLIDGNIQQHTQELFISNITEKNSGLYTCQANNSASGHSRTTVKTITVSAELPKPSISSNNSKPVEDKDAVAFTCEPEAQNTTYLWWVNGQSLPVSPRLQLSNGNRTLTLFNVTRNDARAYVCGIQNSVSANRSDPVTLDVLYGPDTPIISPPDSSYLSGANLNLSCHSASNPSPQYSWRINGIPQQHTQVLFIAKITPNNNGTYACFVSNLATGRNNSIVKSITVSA
Experimental: The CEA ELISA using an anti CPG2 reporter antibody was essentially as above but instead of HRPO-labelled goat anti-human kappa antibody an 1/1000 dil. of a rabbit anti-CPG2 polyclonal sera was added, in 1% BSA in PBS-TWEEN™ and incubated at room temperature on a rocking platform for at 2 hours. The plate was washed three times with PBS-TWEEN™. A 1/2000 dilution of a goat anti-rabbit HRPO labelled antibody (Sigma A-6154) was then added and incubated at room temperature on a rocking platform for 1 hour, the plate was washed three times with PBS-TWEEN™ and once with PBS. To detect binding add 100 μl per well developing solution (one capsule of phosphate-citrate buffer—Sigma P4922—dissolved in 100 ml H2O to which is added one 30 mg tablet o-phenylenediamine dihydrochloride—Sigma P8412) and incubated for up to 15 minutes. The reaction was stopped by adding 75 μl 2M H2SO4, and absorbance read at 490 nm.

CPG2 = details: COS-7 transient expression supernatant
[3] = Enzyme activity in plasma samples (methotrexate turnover, HPLC); assay type: in vivo; details: except when tumour enzyme activity exceeded 2.0 U/g
Experimental: To act as a standard for the assay, a CPG2 enzyme standard curve was prepared in 20% normal plasma to the following concentrations: 0.2, 0.4, 0.6, 0.8 and 1.0 U/ml. Similarly all test plasma samples were also diluted to 20% normal plasma. Further dilutions of these samples e.g. neat 1/10, 1/20 and 1/50 were also made using 20% normal serum. 200 μl aliquots of each CPG2 standard and test sample dilutions were equilibrated to 30°. 2 μl of 10 mM MTX was added to each of the tubes and mixed well. […]. The reaction was stopped after exactly 10 minutes (to increase the sensitivity of the assay the incubation time can be increased to 30 minutes) by adding 500 μl ice cold methanol+0.2% TFA and assayed for product using HPLC detection as described above in Example 10.

CEA negative cell lines = assay: Cell based ELISA of secreted fusion protein, CEA negative cells; details: increasing amounts of added fusion protein; listed as (A5B7-CPG2)2 fusion protein
Experimental: Cells were seeded into 96 well plates (Becton Dickinson Biocoat™ poly-D-Lysine, 35-6461) at a density of 1×10^4 cells per well in 100 μl normal culture media and left about 40 h at 37°. 100 μl of 6% formaldehyde was diluted in DMEM and left for 1 hour at 4°. Plates were centrifuged and washed 3 times in PBS containing 0.05% Tween™ by immersion soaking (first two washes for 2 minutes and the final wash for 5 minutes).
100 μl of doubling dilutions of cell culture supernatant containing fusion protein or chimeric A5B7 anti-CEA were added to each well as appropriate and the plates incubated overnight at 4°. The plates were washed as described above and, in the case of chimaeric fusion proteins. 100 μl of 1:1000 dilution of HRP labelled anti-human kappa antibody (Sigma A-7164) was added and incubated for 2 hours at room temperature (an anti-CPG2 detection methodology can be used in the case of murine scFv fusion proteins). The plates were washed as described above and HRP detected using OPD substrate (Sigma P-8412). Colour was allowed to develop for about 5 min, stopped with 75 μl per well of 2M H2SO4 and OD read at 490 nm.
In the case of the (A5B7-CPG2)2 fusion protein, material was produced in the supernatant from recombinant Colo32ODM tumour cells (CEA-ve). The fusion protein content was measured by use of the CEA ELISAs described above. […]

[4] = tested on: recombinant Colo320DM (CEA negative); assay: Retention of secreted fusion protein on recombinant Colo320DM cells (cell based ELISA); details: listed as (A5B7-CPG2)2 fusion protein
Experimental: as §1, §2

B1: (A5B7 Fab-CPG2)2 fusion protein: chimaeric A5B7 anti-CEA Fab, heavy chain Fd linked via (G4S)3 linker to CPG2 R6, dimerised through CPG2 (antibody)
heavy: EVKLVESGGGLVQPGGSLRLSCATSGFTFTDYYMNWVRQPPGKALEWLGFIGNKANGYTTEYSASVKGRFTISRDKSQSILYLQMNTLRAEDSATYYCTRDRGLRFYFDYWGQGTTLTVSSASTKGPSVFPLAPCSRSTSESTAALGCLVKDYFPEPVTVSWNSGALTSGVHTFPAVLQSSGLYSLSSVVTVPSSNFGTQTYTCNVDHKPSNTKVDKTVGGGGSGGGGSGGGGSQKRDNVLFQAATDEQPAVIKTLEKLVNIETGTGDAEGIAAAGNFLEAELKNLGFTVTRSKSAGLVVGDNIVGKIKGRGGKNLLLMSHMDTVYLKGILAKAPFRVEGDKAYGPGIADDKGGNAVILHTLKLLKEYGVRDYGTITVLFNTDEEKGSFGSRDLIQEEAKLADYVLSFEPTSAGDEKLSLGTSGIAYVQVQITGKASHAGAAPELGVNALVEASDLVLRTMNIDDKAKNLRFQWTIAKAGQVSNIIPASATLNADVRYARNEDFDAAMKTLEERAQQKKLPEADVKVIVTRGRPAFNAGEGGKKLVDKAVAYYKEAGGTLGVEERTGGGTDAAYAALSGKPVIESLGLPGFGYHSDKAEYVDISAIPRRLYMAARLIMDLGAGK
light: QTVLSQSPAILSASPGEKVTMTCRASSSVTYIHWYQQKPGSSPKSWIYATSNLASGVPARFSGSGSGTSYSLTISRVEAEDAATYYCQHWSSKPPTFGGGTKLEIKRTVAAPSVFIFPPSDEQLKSGTASVVCLLNNFYPREAKVQWKVDNALQSGNSQESVTEQDSKDSTYSLSSTLTLSKADYEKHKVYACEVTHQGLSSPVTKSFNRGEC
retention of expressed fusion protein on cell surface (OD 490 nm) [1]: had retained the expressed fusion protein; also recorded: very strong OD 490 nm reading | CEA binding detected with anti-CPG2 reporter antibody [2]: exhibited clear CEA binding | CPG2 enzyme activity in cell supernatant (CPG2): CPG2 enzyme activity to be present in the cell supernatant | enzyme activity in plasma [3]: No activity was seen in the plasma | binding to CEA negative cells (OD 490 nm) (CEA negative cell lines): only constant background binding levels throughout; also recorded: do not bind to CEA negative lines | retention of expressed fusion protein on cell surface (OD 490 nm) [4]: some retention of the expressed fusion protein (probably non-specific); also recorded: much weaker reading than the LoVo cells but the signal was higher than background
